# Source: patent US11629193B2, “EGFR binding molecules” (F-STAR BETA LIMITED, priority 2016, dated 2023)
# Experiments:
# LL2.ova = assay: In vivo skin toxicity and tumour growth, syngeneic mouse tumour model LL2.ova; settings: 250 μg intraperitoneally on days 3, 6 and 10; eight mice each
# Protocol: Skin toxicity has been observed with known anti-EGFR therapies, resulting in skin rash, lesions etc. In order to determine the toxicity of anti-EGFR Fcabs and mAb^2 containing anti-EGFR Fcs, an in vivo study was conducted. […] The tumour cells (5×10^5 cells) were implanted subcutaneously in the flank of female C57B16 (Charles River) mice aged 6-8 weeks and the mice were randomly assigned to four cohorts of eight mice each. […] The tumour volumes were measured with electronic callipers at days 10, 12, 14, 17, 19, 20 and 21. At day 16 pictures of the mice were taken to illustrate the observed skin toxicity.
# NCI-H1975 cells = assay: Cell proliferation, NCI-H1975 cells stimulated with HGF; format: cell-based; settings: NCI-H1975, antibodies 300 nM with and without erlotinib (2 μM)
# Protocol: NCI-H1975 (ATCC CRL-5908) is a non-small cell lung cancer (NSCLC) cell line which expresses constitutively active mutated EGFR L858R and EGFR T790M (Kobayashi et al 2005). These mutations are acquired secondary mutations known to confer resistance to EGFR tyrosine kinase inhibitor (TKI) therapies in NSCLC patients. The NCI-H1975 cell line also expresses c-Met. […] The same method was used as in the U87MG assay described above, except that the NCI-H1975 cells were stimulated with HGF. One day before the treatment, the medium used was changed from containing 10% FBS to containing no serum. Treatments were added at various concentrations (0.003-300 nM) in the presence of 80 ng/ml HGF and incubated for 3 days at 37° C.
# [1] = tested on: phosphorylation of c-Met and EGFR; assay: Western blot of receptor phosphorylation in U87MG cells; format: cell-based, human; settings: 200 nM, 20 min
# Protocol: (§1) Overnight cultures of the glioblastoma cell line U87MG (ATCC HTB-14) were moved from a medium with 10% FBS to a low serum medium with 0.1% FBS to optimise sensitivity to ligand stimulation. The cells were incubated overnight. […] Controls without antibody treatment were included, with and without growth factor stimulation. The treated cells were lysed using lysis buffer (10 mM Tris® pH7.5, 150 mM NaCl, 1 mM EDTA) comprising 1:100 protease inhibitor cocktail (Calbiochem, 539131) and 1:100 Phosphatase inhibitor cocktail (Calbiochem, 524625) and the lysates collected for analysis.
# (§2) Lysate samples were subjected to standard western blotting analysis using a 4-12% Bis-Tris® protein gel (ThermoFisher, NP0322BOX) and transferred to a nitrocellulose membrane (ThermoFisher, IB301001). The membrane was blocked with 5% Marvel milk/TBST and then probed for phospho-c-Met using a rabbit monoclonal antibody specific for c-Met phosphorylated at Tyr1234/1235 (Cell Signaling, 3077), phospho-EGFR using a mouse monoclonal antibody specific for EGFR phosphorylated at Tyr1068 (Cell Signaling, 2236), phospho-MAPK using a mouse monoclonal antibody specific for p44/42 MAPK (ERK1/2) phosphorylated at Thr202/Tyr204 (Cell Signaling, 9106), and phospho-Akt using a rabbit monoclonal antibody specific for Akt phosphorylated at Ser473 (Cell Signaling, 9271). […]
# [2] = tested on: phosphorylation of MAPK and Akt; assay: Western blot of downstream signalling in U87MG cells; format: cell-based, human; settings: 200 nM (200+200 nM for combination), HGF and EGF present
# Protocol: as §1, §2
# HGF = HGF (Homo sapiens, UniProt P14210); assay: Free HGF in culture media of U87MG cells (HGF Human ELISA Kit); format: cell-based; set-up: examined in U87MG cells that secrete HGF; endogenous in cells; host or cells: U87MG; settings: 30 nM, 4 days, compared to controls
# Protocol: It was hypothesised that internalisation of HGF by anti-EGFR/HGF mAb^2 leads to reduced level of HGF in the system. To test this hypothesis, the change in level of free HGF caused by incubation with anti-EGFR/HGF mAb^2 was examined in U87MG cells that secrete HGF. U87MG cultures were incubated with different treatments at 30 nM for 4 days at 37° C. […] On day 4, the media from each cell culture were collected for HGF level analysis. HGF concentration was measured using HGF Human ELISA Kit (ThermoFisher, KAC2211) following the manufacturer's protocol. Using monoclonal anti-HGF antibodies, the free HGF in media was detected (free HGF was defined as HGF in the media which was bound by detection antibodies).
# Chain of HGF (P14210 32-728): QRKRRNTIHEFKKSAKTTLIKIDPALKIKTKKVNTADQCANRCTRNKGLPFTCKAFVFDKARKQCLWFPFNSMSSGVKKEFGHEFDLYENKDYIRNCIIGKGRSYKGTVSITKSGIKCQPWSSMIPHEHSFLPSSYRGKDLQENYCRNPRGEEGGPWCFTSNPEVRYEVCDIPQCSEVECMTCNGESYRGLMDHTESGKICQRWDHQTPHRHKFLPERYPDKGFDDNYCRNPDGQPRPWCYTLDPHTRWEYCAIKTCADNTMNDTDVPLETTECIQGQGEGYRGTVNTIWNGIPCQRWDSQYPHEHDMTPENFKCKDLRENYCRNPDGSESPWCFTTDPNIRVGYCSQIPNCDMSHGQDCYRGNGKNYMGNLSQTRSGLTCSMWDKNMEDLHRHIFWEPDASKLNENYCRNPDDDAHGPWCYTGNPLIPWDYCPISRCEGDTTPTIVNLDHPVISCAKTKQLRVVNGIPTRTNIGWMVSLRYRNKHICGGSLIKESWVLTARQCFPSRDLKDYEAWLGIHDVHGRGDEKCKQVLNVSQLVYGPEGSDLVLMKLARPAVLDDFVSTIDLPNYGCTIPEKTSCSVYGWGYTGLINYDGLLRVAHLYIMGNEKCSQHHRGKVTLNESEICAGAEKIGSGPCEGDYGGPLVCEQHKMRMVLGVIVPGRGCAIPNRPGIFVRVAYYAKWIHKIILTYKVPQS
molecule,measurement,setting,value
"9D9m2a: anti-mouse CTLA4 antibody: 9D9 VH in mouse IgG2a backbone, heavy chain SEQ ID NO: 52, light chain SEQ ID NO: 50 [Fcab 9D9m2a, reference compound]",Mice showing hair loss,LL2.ova,0/8
same,Skin lesions,LL2.ova,0/8
"C#Cc1cccc(Nc2ncnc3cc(OCCOC)c(OCCOC)cc23)c1 [erlotinib, reference compound]",reduction of cell proliferation induced by HGF,NCI-H1975 cells,No effect
rilotumumab [reference compound],block of phosphorylation of c-Met by HGF,[1],able to block the phosphorylation of c-Met by HGF
same,block of phosphorylation of MAPK and Akt,[2],unable to block the phosphorylation of MAPK and Akt
same,concentration of free HGF in the media,HGF,significant decrease in the concentration of free HGF in the media
